Assay results published in publication PMC4860158 (Journal of neurochemistry, 2016).

Target: the molecule itself
Assay: SEC

B1: Gloeobacter violaceus ligand-gated ion channel (GLIC), wild type, pentameric assembly (natural protein, UniProt Q7NDN8 44-359, looked up)
chain: QDMVSPPPPIADEPLTVNTGIYLIECYSLDDKAETFKVNAFLSLSWKDRRLAFDPVRSGVRVKTYEPEAIWIPEIRFVNVENARDADVVDISVSPDGTVQYLERFSARVLSPLDFRRYPFDSQTLHIYLIVRSVDTRNIVLAVDLEKVGKNDDVFLTGWDIESFTAVVKPANFALEDRLESKLDYQLRISRQYFSYIPNIILPMLFILFISWTAFWSTSYEANVTLVVSTLIAHIAFNILVETNLPKTPYMTYTGAIIFMIYLFYFVAVIEVTVQHYLKVESQPARAASITRASRIAFPVVFLLANIILAFLFFGF
In the case of B1, the “stoichiometry N” value is reported as 5.
